Consider 7 variants from IntAct's records for PubMed 23803857.

The labels stand for the following.
B1: C-type lectin domain family 2 member A (Homo sapiens), Q6UVW9 (parent)
chain: MINPELRDGRADGFIHRIVPKLIQNWKIGLMCFLSIIITTVCIIMIATWSKHAKPVACSGDWLGVRDKCFYFSDDTRNWTASKIFCSLQKAELAQIDTQEDMEFLKRYAGTDMHWIGLSRKQGDSWKWTNGTTFNGWFEIIGNGSFAFLSADGVHSSRGFIDIKWICSKPKYFL
partner: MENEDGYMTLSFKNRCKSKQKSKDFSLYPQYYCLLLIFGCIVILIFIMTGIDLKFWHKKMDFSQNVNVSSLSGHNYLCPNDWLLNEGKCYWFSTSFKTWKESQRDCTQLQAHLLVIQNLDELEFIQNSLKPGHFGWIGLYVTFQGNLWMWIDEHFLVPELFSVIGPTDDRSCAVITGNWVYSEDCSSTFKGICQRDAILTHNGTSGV

In the assay the parent is B1. As to conditions: with klrf2_human KLRF2, D3W0D1.
MINPELRDGRADGFIHRIVPKLIQNWKIGLMCFLSIIITTVCIIMIATWSKHAKPVACSGDWLGVRDKCFYFSDDTRNWTASKIFCSLQKAELAQIDTQEDMEFLKRYAGTDMHWIGLSRKQGDSWKWTNGTTFNGWFEIIGNGSFAFLSADGVASSRGFIDIKWICSKPKYFL [H155A]: the “effect of a mutation on the interaction” value is “decreasing interaction strength”. As to MINPELRDGRADGFIHRIVPKLIQNWKIGLMCFLSIIITTVCIIMIATWSKHAKPVACSGDWLGVRDKCFYFSDDTRNWTASKIFCSLQKAELAQIDTQEDMEFLKRYAGTDMHWIGLSRKQGDSWKWTNGTTFNGWFEIIGNGSFAFLSADGVHSSRGFIAIKWICSKPKYFL [D162A], the “effect of a mutation on the interaction” value is given as “decreasing interaction strength”. For MINPELRDGRADGFIHRIVPKLIQNWKIGLMCFLSIIITTVCIIMIATWSKHAKPVACSGDWLGVRDKCFYFSDDTRNWTASKIFCSLQKAELAQIDTQEDMEFLKRYAGTDMHWIGLSRKQGDSWKWTNGTTFNGWFEIIGNGSFAFLSAAGVHSSRGFIDIKWICSKPKYFL [D152A], the “effect of a mutation on the interaction” value was “with no effect”.

With MINPELRDGRADGFIHRIVPKLIQNWKIGLMCFLSIIITTVCIIMIATWSKHAKPVACSGDWLGVRDKCFYFSDDTRNWTASKIFCSLQKAELAQIDTQEDMEFLKRYAGAAAHWIGLSRKQGDSWKWTNGTTFNGWFEIIGNGSFAFLSADGVHSSRGFIDIKWICSKPKYFL [T111A;D112A;M113A], the “effect of a mutation on the interaction” value is listed as “with no effect”. In the case of MINPELRDGRADGFIHRIVPKLIQNWKIGLMCFLSIIITTVCIIMIATWSKHAKPVACSGDWLGVRDKCFYFSDDTRNWTASKIFCSLQKAELAQIDTQEDMEFLKRYAGTDMHWIGLSRKQGDSWKWTNGTTFNGWFEIIGNGSFAALSADGVHSSRGFIDIKWICSKPKYFL [F148A], the “effect of a mutation on the interaction” value is given as “decreasing interaction strength”. For the variant MINPELRDGRADGFIHRIVPKLIQNWKIGLMCFLSIIITTVCIIMIATWSKHAKPVACSGDWLGVRDKCFYFSDDTRNWTASKIFCSLQKAELAQIDTQEDMEFLKRYAGTDMHWIGLSRKQGDSWKWTNGTTFNGWFEIIGNGSFAFLSADGVHSAAGFIDIKWICSKPKYFL [S157A;R158A], the “effect of a mutation on the interaction” value was “decreasing interaction strength”. The entry for MINPELRDGRADGFIHRIVPKLIQNWKIGLMCFLSIIITTVCIIMIATWSKHAKPVACSGDWLGVRDKCFYFSDDTRNWTASKIFCSLQKAELAQIDTQEDMEFLKRYAGTDMHWIGLSRKQGDSWKWTNGTTFNGWFEIIGNGSFAFLSADGVHSSRGAADIKWICSKPKYFL [F160A;I161A] is “decreasing interaction strength”.
